Measured values taken from US20180230232A1 (VIB VZW, published 2018).

B1: NANOBODY 4A2 (Nb_4A2) (VHH)
VHH: QVQLQESGGGLVQPGGSLRLSCAASGFTFETQYMTWVRQAPGKGPEYVSSINSGGTIKYYANSSVKGRFTISRDNAKNTLYLQMNNLRPEDTAIYYCQLGQWAGVGAASSRGQGTQVTVSS
notes: from the llama library; purified from pHEN6; not shown: C-terminal his6-tag (pHEN6)
B2: NANOBODY B9 (Nb_B9) (VHH)
VHH: DVQLQESGGGSVQAGGSLRLSCAASEYTYGYCSMGWYRQAPGKERELVSTITSDGSTSYVDSVKGRFTISQDNAKNTVYLQMNSLKPEDTAKYYCYTKTCANKLGAKFISWGQGTQVTVSS
notes: dromedary VHH; his-tagged from E. coli; HA-tagged periplasmic extract in the ELISA screen; also called VHH B9; not shown: C-terminal his6-tag (pHEN6)
B3: NANOBODY 10C4 (Nb_10C4) (VHH)
VHH: QVQLQESGGGSVQAGGFLRLSCAASGYTYSTCSMAWYRQAPGKERELVSSIRNDGSTAYADSVKGRFTISQDNAKNTVYLQMNSLKPEDTAMYYCNIRIGVGPGGTCSIYAPYWGEGTQVTVSS
notes: from the dromedary libraries; purified from pHEN6; not shown: C-terminal his6-tag (pHEN6)

Tests used:
[1] = target: T1, mouse BACE1 (mouse, UniProt P56818 46-457, limits assumed); assay: SPR (Biacore), pH 4.5
T1 sequence (P56818 46-457 limits assumed): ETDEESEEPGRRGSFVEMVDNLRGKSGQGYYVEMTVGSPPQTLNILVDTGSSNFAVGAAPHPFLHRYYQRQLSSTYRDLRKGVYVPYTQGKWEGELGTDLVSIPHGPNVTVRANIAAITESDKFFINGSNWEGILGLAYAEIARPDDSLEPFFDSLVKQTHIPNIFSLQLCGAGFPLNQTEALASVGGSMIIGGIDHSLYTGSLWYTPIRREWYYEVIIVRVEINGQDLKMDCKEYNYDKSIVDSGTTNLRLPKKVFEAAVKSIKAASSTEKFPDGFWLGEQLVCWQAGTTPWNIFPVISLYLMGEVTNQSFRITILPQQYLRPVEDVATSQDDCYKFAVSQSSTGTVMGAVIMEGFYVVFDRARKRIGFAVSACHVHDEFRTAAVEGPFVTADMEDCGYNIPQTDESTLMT

[2] = target: T1, mouse BACE1; assay: SPR (Biacore), pH 7.0
[3] = target: T2, human BACE1 ectodomain (human, UniProt P56817 22-457); assay: SPR (Biacore), pH 7.0
T2 construct: extracellular domain; also called the ectodomain of human BACE1
T2 sequence (P56817 22-457): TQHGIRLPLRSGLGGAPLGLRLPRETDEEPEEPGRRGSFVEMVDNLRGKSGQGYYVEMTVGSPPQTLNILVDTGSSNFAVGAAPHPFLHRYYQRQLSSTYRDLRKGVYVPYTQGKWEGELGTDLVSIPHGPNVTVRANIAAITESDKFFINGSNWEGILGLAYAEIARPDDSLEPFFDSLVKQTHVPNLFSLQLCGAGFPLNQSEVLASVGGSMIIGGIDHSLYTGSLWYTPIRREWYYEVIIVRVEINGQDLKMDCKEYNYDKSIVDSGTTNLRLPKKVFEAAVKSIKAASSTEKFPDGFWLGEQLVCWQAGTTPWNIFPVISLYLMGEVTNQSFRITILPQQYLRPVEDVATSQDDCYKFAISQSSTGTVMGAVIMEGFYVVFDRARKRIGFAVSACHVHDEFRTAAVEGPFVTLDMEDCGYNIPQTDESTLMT

[4] = target: recombinant BACE1 of the cell-free enzymatic assays (FRET assay, MBP-ELISA) (human, UniProt P56817 46-460, limits assumed); assay: cell-based or functional assay
Sequence of recombinant BACE1 of the cell-free enzymatic assays (FRET assay, MBP-ELISA) (P56817 46-460 limits assumed): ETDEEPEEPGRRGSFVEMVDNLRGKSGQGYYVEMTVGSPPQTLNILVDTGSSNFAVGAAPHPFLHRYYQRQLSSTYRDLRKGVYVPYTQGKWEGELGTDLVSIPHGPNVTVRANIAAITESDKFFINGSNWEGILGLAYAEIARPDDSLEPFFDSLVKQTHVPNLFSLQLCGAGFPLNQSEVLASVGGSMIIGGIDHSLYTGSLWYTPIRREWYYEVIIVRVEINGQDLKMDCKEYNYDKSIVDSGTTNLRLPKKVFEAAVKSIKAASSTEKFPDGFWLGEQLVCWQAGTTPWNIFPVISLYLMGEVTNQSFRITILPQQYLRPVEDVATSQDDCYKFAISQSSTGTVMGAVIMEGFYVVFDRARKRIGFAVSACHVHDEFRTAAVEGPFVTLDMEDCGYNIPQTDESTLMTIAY

[5] = target: T2, human BACE1 ectodomain; assay: SPR (Biacore), pH 4.5
[6] = target: BACE1 of primary cultured mouse neurons (mouse, UniProt P56818 46-501); assay: cell-based or functional assay
Sequence of BACE1 of primary cultured mouse neurons (P56818 46-501): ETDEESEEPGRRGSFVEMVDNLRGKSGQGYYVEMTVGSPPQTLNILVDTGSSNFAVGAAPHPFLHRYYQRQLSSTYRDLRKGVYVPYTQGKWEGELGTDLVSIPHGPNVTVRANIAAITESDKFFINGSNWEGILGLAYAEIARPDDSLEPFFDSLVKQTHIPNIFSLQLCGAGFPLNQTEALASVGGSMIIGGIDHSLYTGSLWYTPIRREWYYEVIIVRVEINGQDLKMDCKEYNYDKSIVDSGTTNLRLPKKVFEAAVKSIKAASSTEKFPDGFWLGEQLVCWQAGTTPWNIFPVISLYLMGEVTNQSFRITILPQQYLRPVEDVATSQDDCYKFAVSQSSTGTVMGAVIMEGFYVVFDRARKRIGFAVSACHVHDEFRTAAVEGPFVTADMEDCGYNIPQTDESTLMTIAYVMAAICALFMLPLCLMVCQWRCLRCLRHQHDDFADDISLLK

Binder | Kd [1] | koff [1] | kon [1] | Kd [2] | koff [2] | kon [2] | Kd [3] | koff [3] | kon [3] | IC50, FRET assay dose-response [4] | Kd [5] | koff [5] | kon [5] | IC50 (CTFβ level) in the neuron assay [6] | EC50, FRET assay dose-response [4]
B1 | 8.61 nM | 0.00216 s⁻¹ | 251000 M⁻¹ s⁻¹ | 35.2 nM | 0.00581 s⁻¹ | 165000 M⁻¹ s⁻¹ | 48.2 nM | 0.0231 s⁻¹ | 479000 M⁻¹ s⁻¹ | 1200 nM | 21.2 nM | 0.00841 s⁻¹ | 397000 M⁻¹ s⁻¹ |  | 
B2 | 1.11 nM | 0.00118 s⁻¹ | 1.06e+06 M⁻¹ s⁻¹ | 1.77 nM | 0.00089 s⁻¹ | 502000 M⁻¹ s⁻¹ | 3.67 nM | 0.00098 s⁻¹ | 267000 M⁻¹ s⁻¹ |  | 1.96 nM | 0.0013 s⁻¹ | 662000 M⁻¹ s⁻¹ | ~500 nM | 4.1 nM
B3 | 10 nM | 0.00988 s⁻¹ | 984000 M⁻¹ s⁻¹ | 41.9 nM | 0.00797 s⁻¹ | 190000 M⁻¹ s⁻¹ | 74.7 nM | 0.00792 s⁻¹ | 106000 M⁻¹ s⁻¹ | 150 nM | 27.7 nM | 0.0125 s⁻¹ | 451000 M⁻¹ s⁻¹ |  | 
